Legend:
N-type calcium channels = N-type calcium channels (Mus musculus, UniProt O55017); assay type: cell-based, Swiss mice
IL-8RB = molecular target: T1, IL-8RB (Homo sapiens, UniProt P25025); assay: Competitive binding assay, IL-8/IL-8RB; settings: peptide at 10 μM
T1 sequence (P25025 1-360): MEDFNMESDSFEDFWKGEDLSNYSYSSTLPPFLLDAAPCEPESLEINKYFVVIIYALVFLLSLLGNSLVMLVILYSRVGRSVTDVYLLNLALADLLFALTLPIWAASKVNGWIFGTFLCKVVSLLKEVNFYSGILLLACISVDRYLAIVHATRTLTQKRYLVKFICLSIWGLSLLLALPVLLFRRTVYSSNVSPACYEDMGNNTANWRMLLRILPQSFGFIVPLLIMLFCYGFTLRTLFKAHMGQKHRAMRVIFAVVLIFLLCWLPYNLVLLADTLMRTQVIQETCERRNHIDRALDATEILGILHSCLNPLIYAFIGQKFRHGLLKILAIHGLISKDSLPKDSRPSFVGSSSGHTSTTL

Row | Sequence | Ca^2+ current shown as a percentage (N-type calcium channels) | inhibition of N-type calcium channel activity (N-type calcium channels) | inhibition of IL-8/IL-8RB (IL-8RB) [%] | frequency (use) dependence of block of Ca^2+ currents (N-type calcium channels) | voltage dependence of inhibition of Ca^2+ current (N-type calcium channels)
1 | FGRKKRRQRRRKLSSIESDV (synthetic 1993 peptide F-Tat-NR2B9c) [Peptide 1993, variant in which the Y residue at position 1 of Tat-NR2B9c was mutated to F] | 91+/−1.6% | no significant inhibition | – | – | –
2 | YGRKKRRQRRRKLSSIESDV [Tat-NR2B9c] (Synthetic peptide Tat-NR2B9c) [chimeric peptide of a standard tat peptide and …] | 68+/−1.7% | – | 80 | not frequency dependent | voltage-independent manner

Reference: US9365620B2, “Methods for treating pain” (NoNO NC., priority 2008, dated 2016)
